Biological target: Human thyroid-stimulating hormone receptor (human) (UniProt P16473)
UniProt P16473, sequence (P16473 21-764): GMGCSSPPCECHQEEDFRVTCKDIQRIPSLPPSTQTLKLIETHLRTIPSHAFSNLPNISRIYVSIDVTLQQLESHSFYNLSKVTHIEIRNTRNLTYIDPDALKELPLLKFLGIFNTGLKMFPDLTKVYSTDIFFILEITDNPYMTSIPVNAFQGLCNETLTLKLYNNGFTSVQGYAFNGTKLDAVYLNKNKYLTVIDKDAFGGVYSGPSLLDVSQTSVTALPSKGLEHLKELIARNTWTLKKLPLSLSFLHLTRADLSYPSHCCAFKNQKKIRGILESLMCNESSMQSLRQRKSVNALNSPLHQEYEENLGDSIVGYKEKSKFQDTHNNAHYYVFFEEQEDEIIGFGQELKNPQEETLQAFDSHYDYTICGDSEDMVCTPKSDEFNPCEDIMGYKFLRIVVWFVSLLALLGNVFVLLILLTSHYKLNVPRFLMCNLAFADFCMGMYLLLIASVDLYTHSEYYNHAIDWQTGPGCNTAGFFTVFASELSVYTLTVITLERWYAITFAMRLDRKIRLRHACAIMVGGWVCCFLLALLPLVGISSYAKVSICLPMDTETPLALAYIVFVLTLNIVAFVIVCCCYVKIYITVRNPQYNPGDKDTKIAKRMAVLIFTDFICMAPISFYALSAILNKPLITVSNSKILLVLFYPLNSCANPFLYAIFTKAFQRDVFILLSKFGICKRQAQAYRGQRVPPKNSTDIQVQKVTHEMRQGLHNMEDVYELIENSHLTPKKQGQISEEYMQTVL

## Recombinant human thyroid-stimulating hormone (from UniProt P01215 25-116; P01222 21-132) (ligand)
  EC50 of the NFAT-driven luciferase reporter (RLU) in HEK293-TSHR/NFAT-Luc cells seeded at 0.8 × 10^5 cells/mL, serially diluted rhTSH: 0.32
